Experimental data: IntAct's records for PubMed 29892012

B1: Mothers against decapentaplegic homolog 4 (Homo sapiens), Q13485 (parent)
chain: MDNMSITNTPTSNDACLSIVHSLMCHRQGGESETFAKRAIESLVKKLKEKKDELDSLITAITTNGAHPSKCVTIQRTLDGRLQVAGRKGFPHVIYARLWRWPDLHKNELKHVKYCQYAFDLKCDSVCVNPYHYERVVSPGIDLSGLTLQSNAPSSMMVKDEYVHDFEGQPSLSTEGHSIQTIQHPPSNRASTETYSTPALLAPSESNATSTANFPNIPVASTSQPASILGGSHSEGLLQIASGPQPGQQQNGFTGQPATYHHNSTTTWTGSRTAPYTPNLPHHQNGHLQHHPPMPPHPGHYWPVHNELAFQPPISNHPAPEYWCSIAYFEMDVQVGETFKVPSSCPIVTVDGYVDPSGGDRFCLGQLSNVHRTEAIERARLHIGKGVQLECKGEGDVWVRCLSDHAVFVQSYYLDREAGRAPGDAVHKIYPSAYIKVFDLRQCHRQMQQQAATAQAAAAAQAAAVAGNIPGPGSVGGIAPAISLSAAAGIGVDDLRRLCILRMSFVKGWGPDYPRQSIKETPCWIEIHLHRALQLLDEVLHTMPIADPQPLD
B2: Protein VAC14 homolog (Homo sapiens), Q08AM6 (parent)
chain: MNPEKDFAPLTPNIVRALNDKLYEKRKVAALEIEKLVREFVAQNNTVQIKHVIQTLSQEFALSQHPHSRKGGLIGLAACSIALGKDSGLYLKELIEPVLTCFNDADSRLRYYACEALYNIVKVARGAVLPHFNVLFDGLSKLAADPDPNVKSGSELLDRLLKDIVTESNKFDLVSFIPLLRERIYSNNQYARQFIISWILVLESVPDINLLDYLPEILDGLFQILGDNGKEIRKMCEVVLGEFLKEIKKNPSSVKFAEMANILVIHCQTTDDLIQLTAMCWMREFIQLAGRVMLPYSSGILTAVLPCLAYDDRKKSIKEVANVCNQSLMKLVTPEDDELDELRPGQRQAEPTPDDALPKQEGTASGGPDGSCDSSFSSGISVFTAASTERAPVTLHLDGIVQVLNCHLSDTAIGMMTRIAVLKWLYHLYIKTPRKMFRHTDSLFPILLQTLSDESDEVILKDLEVLAEIASSPAGQTDDPGPLDGPDLQASHSELQVPTPGRAGLLNTSGTKGLECSPSTPTMNSYFYKFMINLLKRFSSERKLLEVRGPFIIRQLCLLLNAENIFHSMADILLREEDLKFASTMVHALNTILLTSTELFQLRNQLKDLKTLESQNLFCCLYRSWCHNPVTTVSLCFLTQNYRHAYDLIQKFGDLEVTVDFLAEVDKLVQLIECPIFTYLRLQLLDVKNNPYLIKALYGLLMLLPQSSAFQLLSHRLQCVPNPELLQTEDSLKAAPKSQKADSPSIDYAELLQHFEKVQNKHLEVRHQRSGRGDHLDRRVVL
partner: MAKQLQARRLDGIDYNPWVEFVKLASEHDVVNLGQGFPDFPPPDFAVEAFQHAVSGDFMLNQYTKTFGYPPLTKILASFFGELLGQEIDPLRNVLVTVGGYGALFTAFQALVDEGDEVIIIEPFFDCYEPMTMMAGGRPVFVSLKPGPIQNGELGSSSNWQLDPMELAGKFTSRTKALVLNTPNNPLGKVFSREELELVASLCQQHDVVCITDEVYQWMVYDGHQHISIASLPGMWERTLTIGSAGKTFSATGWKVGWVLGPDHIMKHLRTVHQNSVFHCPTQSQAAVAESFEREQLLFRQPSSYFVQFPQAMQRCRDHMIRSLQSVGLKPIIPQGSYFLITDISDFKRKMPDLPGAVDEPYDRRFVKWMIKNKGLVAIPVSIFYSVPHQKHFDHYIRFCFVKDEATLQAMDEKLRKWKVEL
B3: Alpha-ketoglutarate-dependent dioxygenase alkB homolog 3 (Homo sapiens), Q96Q83 (parent)
chain: MEEKRRRARVQGAWAAPVKSQAIAQPATTAKSHLHQKPGQTWKNKEHHLSDREFVFKEPQQVVRRAPEPRVIDREGVYEISLSPTGVSRVCLYPGFVDVKEADWILEQLCQDVPWKQRTGIREDITYQQPRLTAWYGELPYTYSRITMEPNPHWHPVLRTLKNRIEENTGHTFNSLLCNLYRNEKDSVDWHSDDEPSLGRCPIIASLSFGATRTFEMRKKPPPEENGDYTYVERVKIPLDHGTLLIMEGATQADWQHRVPKEYHSREPRVNLTFRTVYPDPRGAPW
B4: Inositol polyphosphate 5-phosphatase K (Homo sapiens), Q9BT40 (parent)
chain: MSSRKLSGPKGRRLSIHVVTWNVASAAPPLDLSDLLQLNNRNLNLDIYVIGLQELNSGIISLLSDAAFNDSWSSFLMDVLSPLSFIKVSHVRMQGILLLVFAKYQHLPYIQILSTKSTPTGLFGYWGNKGGVNICLKLYGYYVSIINCHLPPHISNNYQRLEHFDRILEMQNCEGRDIPNILDHDLIIWFGDMNFRIEDFGLHFVRESIKNRCYGGLWEKDQLSIAKKHDPLLREFQEGRLLFPPTYKFDRNSNDYDTSEKKRKPAWTDRILWRLKRQPCAGPDTPIPPASHFSLSLRGYSSHMTYGISDHKPVSGTFDLELKPLVSAPLIVLMPEDLWTVENDMMVSYSSTSDFPSSPWDWIGLYKVGLRDVNDYVSYAWVGDSKVSCSDNLNQVYIDISNIPTTEDEFLLCYYSNSLRSVVGISRPFQIPPGSLREDPLGEAQPQI
partner: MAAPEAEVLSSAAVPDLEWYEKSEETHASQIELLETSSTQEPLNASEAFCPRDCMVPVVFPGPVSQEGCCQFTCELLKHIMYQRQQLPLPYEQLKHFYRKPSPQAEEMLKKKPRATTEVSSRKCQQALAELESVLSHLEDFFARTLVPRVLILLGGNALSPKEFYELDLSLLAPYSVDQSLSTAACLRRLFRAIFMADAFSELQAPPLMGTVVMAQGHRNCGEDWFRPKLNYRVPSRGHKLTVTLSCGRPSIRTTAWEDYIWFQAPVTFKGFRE
B5: Ribosome assembly protein METTL17, mitochondrial (Homo sapiens), Q9H7H0 (parent)
chain: MAAALKCLLTLGRWCPGLGVAPQARALAALVPGVTQVDNKSGFLQKRPHRQHPGILKLPHVRLPQALANGAQLLLLGSAGPTMENQVQTLTSYLWSRHLPVEPEELQRRARHLEKKFLENPDLSQTEEKLRGAVLHALRKTTYHWQELSYTEGLSLVYMAARLDGGFAAVSRAFHEIRARNPAFQPQTLMDFGSGTGSVTWAAHSIWGQSLREYMCVDRSAAMLVLAEKLLKGGSESGEPYIPGVFFRQFLPVSPKVQFDVVVSAFSLSELPSKADRTEVVQTLWRKTGHFLVLVENGTKAGHSLLMDARDLVLKGKEKSPLDPRPGFVFAPCPHELPCPQLTNLACSFSQAYHPIPFSWNKKPKEEKFSMVILARGSPEEAHRWPRITQPVLKRPRHVHCHLCCPDGHMQHAVLTARRHGRDLYRCARVSSWGDLLPVLTPSAFPPSTAQDPSES
partner: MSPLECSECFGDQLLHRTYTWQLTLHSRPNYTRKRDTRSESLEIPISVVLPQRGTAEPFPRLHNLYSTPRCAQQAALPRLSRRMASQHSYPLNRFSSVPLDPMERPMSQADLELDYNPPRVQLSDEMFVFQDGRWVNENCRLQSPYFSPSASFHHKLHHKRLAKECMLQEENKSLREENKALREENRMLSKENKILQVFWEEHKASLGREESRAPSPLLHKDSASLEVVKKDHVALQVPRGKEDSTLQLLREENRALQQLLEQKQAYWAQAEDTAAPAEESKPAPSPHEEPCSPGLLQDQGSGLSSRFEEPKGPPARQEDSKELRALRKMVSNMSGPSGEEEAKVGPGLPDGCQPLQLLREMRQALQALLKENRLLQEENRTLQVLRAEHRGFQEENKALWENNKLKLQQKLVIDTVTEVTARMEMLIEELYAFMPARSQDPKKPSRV

Variants of: B1
Conditions: with ews_human EWSR1, Q01844
Chain of ews_human EWSR1, Q01844 (Q01844 whole entry): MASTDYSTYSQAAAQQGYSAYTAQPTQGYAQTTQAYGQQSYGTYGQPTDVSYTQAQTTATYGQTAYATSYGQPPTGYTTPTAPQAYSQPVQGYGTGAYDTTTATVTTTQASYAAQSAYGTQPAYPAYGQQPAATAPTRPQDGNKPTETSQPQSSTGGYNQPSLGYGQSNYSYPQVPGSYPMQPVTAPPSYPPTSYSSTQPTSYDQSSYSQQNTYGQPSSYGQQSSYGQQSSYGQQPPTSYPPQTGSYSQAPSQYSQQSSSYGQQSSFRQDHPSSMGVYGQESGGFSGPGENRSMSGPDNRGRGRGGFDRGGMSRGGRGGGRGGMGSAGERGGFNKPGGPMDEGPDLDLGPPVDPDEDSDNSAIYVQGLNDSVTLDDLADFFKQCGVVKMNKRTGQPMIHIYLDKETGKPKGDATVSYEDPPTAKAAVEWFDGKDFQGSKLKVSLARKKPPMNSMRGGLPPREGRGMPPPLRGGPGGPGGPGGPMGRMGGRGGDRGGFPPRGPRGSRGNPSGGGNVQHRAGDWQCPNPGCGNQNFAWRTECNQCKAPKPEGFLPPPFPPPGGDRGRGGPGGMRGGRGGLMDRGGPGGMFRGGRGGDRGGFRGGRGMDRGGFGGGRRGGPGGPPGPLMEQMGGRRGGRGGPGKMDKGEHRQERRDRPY
In the case of I500V, the “effect of a mutation on the interaction” value is reported as “disrupting interaction strength”.

Variants of: B1
Conditions: with smad3_human SMAD3, P84022
Chain of smad3_human SMAD3, P84022 (P84022 whole entry, looked up): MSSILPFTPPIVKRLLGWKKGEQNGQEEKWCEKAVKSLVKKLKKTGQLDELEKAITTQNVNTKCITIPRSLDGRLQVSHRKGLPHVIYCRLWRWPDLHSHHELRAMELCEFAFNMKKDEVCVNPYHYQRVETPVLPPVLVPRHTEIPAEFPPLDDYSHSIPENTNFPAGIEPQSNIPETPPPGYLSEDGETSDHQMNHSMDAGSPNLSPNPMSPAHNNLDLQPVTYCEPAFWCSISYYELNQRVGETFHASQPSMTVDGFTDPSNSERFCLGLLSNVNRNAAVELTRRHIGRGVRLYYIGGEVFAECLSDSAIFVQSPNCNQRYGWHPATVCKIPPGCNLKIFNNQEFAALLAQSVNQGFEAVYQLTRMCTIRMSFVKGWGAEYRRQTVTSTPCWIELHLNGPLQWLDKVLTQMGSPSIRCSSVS
For I500V, the “effect of a mutation on the interaction” value was “with no effect”.

Variants of: B2
Conditions: with kat1_human KYAT1, Q16773
A127S was tested, and the “effect of a mutation on the interaction” value was “with no effect”.

Variants of: B3
Conditions: with ikzf1_human IKZF1, Q13422
Chain of ikzf1_human IKZF1, Q13422 (Q13422 whole entry): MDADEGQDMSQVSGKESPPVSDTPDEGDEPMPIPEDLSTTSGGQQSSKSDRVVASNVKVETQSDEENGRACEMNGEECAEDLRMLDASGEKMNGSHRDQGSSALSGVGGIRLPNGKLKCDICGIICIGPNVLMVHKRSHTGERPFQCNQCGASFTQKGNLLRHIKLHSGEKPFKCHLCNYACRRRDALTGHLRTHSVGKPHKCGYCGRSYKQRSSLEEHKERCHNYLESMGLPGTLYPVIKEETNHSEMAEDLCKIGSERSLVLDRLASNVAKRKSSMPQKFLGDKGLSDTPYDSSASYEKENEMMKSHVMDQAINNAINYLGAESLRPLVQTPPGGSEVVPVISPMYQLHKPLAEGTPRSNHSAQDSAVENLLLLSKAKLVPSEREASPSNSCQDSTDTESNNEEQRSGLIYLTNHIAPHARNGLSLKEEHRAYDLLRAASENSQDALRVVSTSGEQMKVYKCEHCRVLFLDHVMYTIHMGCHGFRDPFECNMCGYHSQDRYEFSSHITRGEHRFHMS
With R64H the “effect of a mutation on the interaction” value was “with no effect”.

Variants of: B4
Conditions: with md2bp_human MAD2L1BP
In the case of R437K, the “effect of a mutation on the interaction” value is reported as “disrupting interaction strength”.

Variants of: B5
Conditions: with cby2_human CBY2, Q8NA61
R212H was tested, and the “effect of a mutation on the interaction” value was “with no effect”.
